Assay results reported in publication doi:10.1101/2020.03.26.009662.

Target: ForT, recombinant wild type
Assay: SEC-MALS

ForT, recombinant wild type (enzyme) gave a stoichiometry N of 2.
